Test results: article PMC8924211 (Nature Communications, 2022)
Numbering of substitutions follows the chain as printed.

How the values were obtained:
Test in all cases: AlphaScreen or HTRF; saturation binding: HEK293 cells transfected with SNAP-tagged receptor (WT or mutant) and labelled with SNAP-Lumi4-Tb, incubated with increasing concentrations of galanin-A2 in the presence or absence of 100 uM unlabeled galanin, 1 h at room temperature; HTRF ratio 665 nm/620 nm
Settings in all cases: one partner purified
[1] = molecular target: T1, SNAP-GAL2R T267^7.28A (human, UniProt O43603 1-387, T267^7.28A, Lumi4-Tb on the SNAP tag)
T1 construct: also called T267A; source: HEK293, transfected, on cells; not shown: SNAP tag, N-terminal, kept
T1 sequence (looked up): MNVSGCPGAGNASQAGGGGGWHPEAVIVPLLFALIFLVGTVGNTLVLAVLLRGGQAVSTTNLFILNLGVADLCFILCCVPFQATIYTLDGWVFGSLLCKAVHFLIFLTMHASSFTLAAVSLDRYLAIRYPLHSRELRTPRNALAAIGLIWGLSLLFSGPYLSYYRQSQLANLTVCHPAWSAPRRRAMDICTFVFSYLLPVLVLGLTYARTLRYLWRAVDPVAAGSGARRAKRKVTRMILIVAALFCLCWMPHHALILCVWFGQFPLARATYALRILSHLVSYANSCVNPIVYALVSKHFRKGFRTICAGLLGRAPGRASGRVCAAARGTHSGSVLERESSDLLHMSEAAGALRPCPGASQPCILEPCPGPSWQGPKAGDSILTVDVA

[2] = molecular target: T2, SNAP-GAL2R V259^6.58A (human, UniProt O43603 1-387, V259^6.58A, Lumi4-Tb on the SNAP tag)
T2 construct: also called V259A; source: HEK293, transfected, on cells; not shown: SNAP tag, N-terminal, kept
T2 sequence (looked up): T1 sequence (looked up) with V259A, A267T

[3] = molecular target: T3, SNAP-GAL2R H252^6.51A (human, UniProt O43603 1-387, H252^6.51A, Lumi4-Tb on the SNAP tag)
T3 construct: also called H252A; source: HEK293, transfected, on cells; not shown: SNAP tag, N-terminal, kept
T3 sequence (looked up): T1 sequence (looked up) with H252A, A267T

[4] = molecular target: T4, N-terminal-SNAP-tagged GAL2R, wild type (human, UniProt O43603 1-387, Lumi4-Tb on the SNAP tag)
T4 construct: also called SNAP-GAL2R; GAL2R WT; source: HEK293, transfected, on cells; not shown: SNAP tag, N-terminal, kept
T4 sequence (looked up): T1 sequence (looked up) with A267T

B1: galanin-A2 (full-length galanin labeled with the dye A2 on an additional cysteine at the C-terminal end) (peptide)
peptide: GWTLNSAGYLLGPHAVGNHRSFSDKNGLTSC
modifications: dye A2 on the additional C-terminal cysteine
notes: numbers count on: the mature protein; additional cysteine at the C-terminal end of the peptide, carries the dye A2; source: synthetic peptide (synthesized by Vazyme, China)
Work on B1 yielded a Kd [1] of 229 nM, a Kd [2] of 180 nM and a Kd [3] of 246 nM. For the same binder, the Kd [4] was 21.7 nM.
